± gives the uncertainty stated by the source.
B1: TOX high mobility group box family member 3, residues 256 to 323; numbered along this chain, O15405 (parent)
chain: QKPVSAYALFFRDTQAAIKGQNPNATFGEVSKIVASMWDSLGEEQKQVYKRKTEAAKKEYLKALAAYR

Variants of: B1
Assay: abundance fitness (aPCA) (normalised: wild type 0, dead -1); higher = more abundant; growth selection in yeast, the domain comes from the species named
Conditions: Homo sapiens

Variant	abundance fitness
QWPVSAYALFFRDTQAAIKGQNPNATFGEVSKIVASMWDSLGEEQKQVYKRKTEAAKKEYLKALAAYR [K2W]	-0.781 ± 0.15
QEPVSAYALFFRDTQAAIKGQNPNATFGEVSKIVASMWDSLGEEQKQVYKRKTEAAKKEYLKALAAYR [K2E]	-0.464 ± 0.11
QKPVSAYALFFRFTQAAIKGQNPNATFGEVSKIVASMWDSLGEEQKQVYKRKTEAAKKEYLKALAAYR [D13F]	-0.494 ± 0.12
QKPVSAYALFFRDTQAAIKGQNPNATFGEVSKIVASMWDSLGREQKQVYKRKTEAAKKEYLKALAAYR [E43R]	-0.274 ± 0.075
QKPVSAYALFFRDTQAAIKGQNPNATFGEVSKIVASMWDSLGMEQKQVYKRKTEAAKKEYLKALAAYR [E43M]	-0.255 ± 0.12
QKPVSAYALFFRDTQAAIKGQNPNATFGEVSKIVASMWDSLGQEQKQVYKRKTEAAKKEYLKALAAYR [E43Q]	-0.002 ± 0.07
QKPVSAYALFFRDTQAAIKGQNPNATFSEVSKIVASMWDSLGEEQKQVYKRKTEAAKKEYLKALAAYR [G28S]	0.013 ± 0.046
QKPVSAYALFGRDTQAAIKGQNPNATFGEVSKIVASMWDSLGEEQKQVYKRKTEAAKKEYLKALAAYR [F11G]	-0.915 ± 0.17
QKPVSAYALFFRDTQAAIKGQNPNATFGEVSKIVASMWDSLGEEQKQVYKRKTPAAKKEYLKALAAYR [E54P]	-0.118 ± 0.055
QKPVSAYALFFRDTQAAIKGQNPNATFGEVSKIVASMWDSLGEEQKQVYKRKTEAAKKEYLKADAAYR [L64D]	0.323 ± 0.076
QKPVSAYALFFRDTQAAIKGQNPNATFGEVSKIVASMWDSLGEEQKQVYKRKTEAAKKEYLKAEAAYR [L64E]	0.354 ± 0.066
QKPVSAYALFFRDTQAAIKGQNPNATFGEVSKIVASMWDSLGEEQKQVYKRKTEAAKKEYLKALRAYR [A65R]	-0.037 ± 0.059
QKPVSAYALFFRDTQAAIKGQNPNATFGEVSKIVASMWDSLGEEQKQVYKRKTEAAKKEYLKALLAYR [A65L]	-0.03 ± 0.056
QKPVSAYALYFRDTQAAIKGQNPNATFGEVSKIVASMWDSLGEEQKQVYKRKTEAAKKEYLKALAAYR [F10Y]	0.047 ± 0.12
QKPVSGYALFFRDTQAAIKGQNPNATFGEVSKIVASMWDSLGEEQKQVYKRKTEAAKKEYLKALAAYR [A6G]	-0.168 ± 0.079
QKPVSYYALFFRDTQAAIKGQNPNATFGEVSKIVASMWDSLGEEQKQVYKRKTEAAKKEYLKALAAYR [A6Y]	-0.34 ± 0.17
QKPVSFYALFFRDTQAAIKGQNPNATFGEVSKIVASMWDSLGEEQKQVYKRKTEAAKKEYLKALAAYR [A6F]	-0.661 ± 0.16
QKPVSLYALFFRDTQAAIKGQNPNATFGEVSKIVASMWDSLGEEQKQVYKRKTEAAKKEYLKALAAYR [A6L]	-0.37 ± 0.086
QKPVSAYALFFRDTQAAIKGQNPTATFGEVSKIVASMWDSLGEEQKQVYKRKTEAAKKEYLKALAAYR [N24T]	0.026 ± 0.078
QKPVSAYALFFRDTQAAIKGQNPDATFGEVSKIVASMWDSLGEEQKQVYKRKTEAAKKEYLKALAAYR [N24D]	-0.055 ± 0.091
QKPVSAYALFFRDTQAAIKGQNPNATFGEVSKIVASMWDSLGEEQKQVYKRKTEAAKKEGLKALAAYR [Y60G]	-0.101 ± 0.091
QKPVSAYALFFRDTQAAIKYQNPNATFGEVSKIVASMWDSLGEEQKQVYKRKTEAAKKEYLKALAAYR [G20Y]	-0.361 ± 0.096
QKPVSAYALFFRDTCAAIKGQNPNATFGEVSKIVASMWDSLGEEQKQVYKRKTEAAKKEYLKALAAYR [Q15C]	-0.178 ± 0.2
QKPVSAYALFFRDTLAAIKGQNPNATFGEVSKIVASMWDSLGEEQKQVYKRKTEAAKKEYLKALAAYR [Q15L]	-0.13 ± 0.084
QKPVSAYALFFRDTQACIKGQNPNATFGEVSKIVASMWDSLGEEQKQVYKRKTEAAKKEYLKALAAYR [A17C]	-0.278 ± 0.14
QKPVCAYALFFRDTQAAIKGQNPNATFGEVSKIVASMWDSLGEEQKQVYKRKTEAAKKEYLKALAAYR [S5C]	-0.074 ± 0.11
QKPVVAYALFFRDTQAAIKGQNPNATFGEVSKIVASMWDSLGEEQKQVYKRKTEAAKKEYLKALAAYR [S5V]	-0.693 ± 0.1

Variant	abundance fitness
QKPVPAYALFFRDTQAAIKGQNPNATFGEVSKIVASMWDSLGEEQKQVYKRKTEAAKKEYLKALAAYR [S5P]	-0.458 ± 0.11
QKPVSAYALFFRDTQAAIKGQNPNATFGEVSKIVASMWDSGGEEQKQVYKRKTEAAKKEYLKALAAYR [L41G]	-0.474 ± 0.07
QKPVSAYALFFRDTQAAIKGQNPNATFGEVSKIVASMWDSTGEEQKQVYKRKTEAAKKEYLKALAAYR [L41T]	-0.298 ± 0.13
QKPVSAYALFFRDTQAAIKGGNPNATFGEVSKIVASMWDSLGEEQKQVYKRKTEAAKKEYLKALAAYR [Q21G]	-0.289 ± 0.057
QKPVSAYALFFRDTQAAIKGTNPNATFGEVSKIVASMWDSLGEEQKQVYKRKTEAAKKEYLKALAAYR [Q21T]	-0.011 ± 0.084
QKPVSAYALFFRDTQAAIKGQNPNLTFGEVSKIVASMWDSLGEEQKQVYKRKTEAAKKEYLKALAAYR [A25L]	-0.155 ± 0.07
QKPVSAYALFFRDTQAAIKGQNPNHTFGEVSKIVASMWDSLGEEQKQVYKRKTEAAKKEYLKALAAYR [A25H]	-0.299 ± 0.084
QKPVSAYALFFRDTQAAIKGQNPNATFGEVSKIVASMWDSLGEEQKQVYKRKTEAAKKEYLKALAAYF [R68F]	-0.33 ± 0.25
QKPVSAYALFFRDTQAAIKGQNPNATFGEVSKIVASMWDSLGEEQKQVYKRKTEAAKKEYLKALAAYQ [R68Q]	-0.044 ± 0.089
QKPVSAYALFFRDTQAAIKGQNPNATFGEVSKIVASMWDSLGEEQKQVYKRKTEAAKKEYLKALAANR [Y67N]	0.288 ± 0.076
QKPVSAYALFFRDTQAAIKGQNPNATFGEVSKIVASMWDSLGEEQKQVYKRKTEAAKKEYLKALAAIR [Y67I]	-0.012 ± 0.073
QKPVSAYALFFRDTQAAIKGQNPNATFGEVSKIVASMWDSLGEEQKQVYKRKTEAAKKEYLKALAAAR [Y67A]	0.263 ± 0.077
QKPVSAYALFFRDMQAAIKGQNPNATFGEVSKIVASMWDSLGEEQKQVYKRKTEAAKKEYLKALAAYR [T14M]	0.048 ± 0.084
QKPVSAYALFFRDTQAAIKGQNPNATFGEVSKIVASMWWSLGEEQKQVYKRKTEAAKKEYLKALAAYR [D39W]	-0.211 ± 0.074
QKPVSAYALFFRDTQAAIKGQNPNATFGEVSKIVASMWYSLGEEQKQVYKRKTEAAKKEYLKALAAYR [D39Y]	-0.231 ± 0.085
QKPVSAYALFFRDTQAAIKGQNPNATFGEVSKIVASMWDSLGEEQKMVYKRKTEAAKKEYLKALAAYR [Q47M]	-0.11 ± 0.089
QKPVSAYCLFFRDTQAAIKGQNPNATFGEVSKIVASMWDSLGEEQKQVYKRKTEAAKKEYLKALAAYR [A8C]	0.163 ± 0.097
QKPVSAYALFFRDTQAAIKGQNPNATFGEVSKIVASMWDSLGEEQKQVYKRKLEAAKKEYLKALAAYR [T53L]	-0.09 ± 0.038
QKPVSAYALFFQDTQAAIKGQNPNATFGEVSKIVASMWDSLGEEQKQVYKRKTEAAKKEYLKALAAYR [R12Q]	-0.057 ± 0.094
QKPVSAYALFFPDTQAAIKGQNPNATFGEVSKIVASMWDSLGEEQKQVYKRKTEAAKKEYLKALAAYR [R12P]	-1 ± 0.23
QKPVSAYALFFRDTQAAIKGQNPNATFGEVSKIVASMWDSLGEEQKQVYKRKTEAAKKEYLKALAYYR [A66Y]	-0.111 ± 0.12
QKPVSAYALFFRDTQAAIKGQNPNATFGEVSKIVASMWDALGEEQKQVYKRKTEAAKKEYLKALAAYR [S40A]	0.005 ± 0.062
QKPVSAYALFFRDTQAAIKGQNPNATFGEVSKIVASMWDSLGEEQKQVYKRKTEAAKKEYEKALAAYR [L61E]	-0.064 ± 0.16
QKPVSAYALFFRDTQAAIKGQNPNATFGEVSKIVASMWDSLGEEQKQVYKRKTEAAKKEYCKALAAYR [L61C]	-0.014 ± 0.085
QKPVSAYALFFRDTQAAIKGQNPNATFGEVSKIVASMWDSLGEEQKQVYKSKTEAAKKEYLKALAAYR [R51S]	-0.02 ± 0.044
QKPVSAYALFFRDTQAAIKGQNPNATFGEVSKIVASMWDSLGEEQKQVYKTKTEAAKKEYLKALAAYR [R51T]	0.042 ± 0.047
QKPVSAYALFFRDTQAAIKGQNPNATFGEVSKIVASMWDSLGEEQKQVYKRKTEAAKKEYLKHLAAYR [A63H]	0.155 ± 0.079

Variant	abundance fitness
QKPVSAYALFFRDTQAAIKGQNPNATFGEVSKIVASMWDSLGEEQKQVYKRKTEAAKKEYLKKLAAYR [A63K]	0.173 ± 0.062
QKPVSAYALFFRDTQAAIKGQNPNATFGEVSKIVASMVDSLGEEQKQVYKRKTEAAKKEYLKALAAYR [W38V]	-1.07 ± 0.14
QKPVSAYALFFRDTQAAIKGQNPNATFGEVSKIVATMWDSLGEEQKQVYKRKTEAAKKEYLKALAAYR [S36T]	0.067 ± 0.067
QKPVSAYALFFRDTQAAIKGQNPNATFGEVSKIVAGMWDSLGEEQKQVYKRKTEAAKKEYLKALAAYR [S36G]	0.01 ± 0.053
QKPVSAYALFFRDTQAAIKGQNPNATFGEVSKIVASMWDSLGEEQKQVYKRKTEAAKKFYLKALAAYR [E59F]	-0.443 ± 0.14
QKPVSAYALFFRDTQAAIKGQNPNATFGEKSKIVASMWDSLGEEQKQVYKRKTEAAKKEYLKALAAYR [V30K]	-0.702 ± 0.15
QKPVSAYALFFRDTQAAIKGQNPNATFGEVKKIVASMWDSLGEEQKQVYKRKTEAAKKEYLKALAAYR [S31K]	0.116 ± 0.084
QKPVSAYALFFRDTQSAIKGQNPNATFGEVSKIVASMWDSLGEEQKQVYKRKTEAAKKEYLKALAAYR [A16S]	-0.158 ± 0.055
QKPVSAYALFFRDTQHAIKGQNPNATFGEVSKIVASMWDSLGEEQKQVYKRKTEAAKKEYLKALAAYR [A16H]	-0.09 ± 0.17
QKPVSAYALFFRDTQAAIKGQNPNATFGEVSKIVASMWDSLGEEQKQVYKRKTEASKKEYLKALAAYR [A56S]	-0.146 ± 0.052
QKPVSAYALFFRDTQAAIKGQNPNATFGEVSKIVASMWDSLGEEQKQVYKRKTEALKKEYLKALAAYR [A56L]	-0.109 ± 0.037
QKPVSAYALFFRDTQAAIKGQNPNATFGEVSKEVASMWDSLGEEQKQVYKRKTEAAKKEYLKALAAYR [I33E]	-0.131 ± 0.067
QKPVSAYALFFRDTQAAIKGQNPNAIFGEVSKIVASMWDSLGEEQKQVYKRKTEAAKKEYLKALAAYR [T26I]	-1.01 ± 0.23
QKPVSAYALFFRDTQAAIKGQNPNAGFGEVSKIVASMWDSLGEEQKQVYKRKTEAAKKEYLKALAAYR [T26G]	-0.208 ± 0.065
QKPVSAYALFFRDTQAAIKGQNNNATFGEVSKIVASMWDSLGEEQKQVYKRKTEAAKKEYLKALAAYR [P23N]	-0.251 ± 0.15
QKPVSAYALFFRDTQAAIKGQNPNATFGEVSKIVASMWDSLNEEQKQVYKRKTEAAKKEYLKALAAYR [G42N]	0.108 ± 0.079
QKPVSAYALFFRDTQAAIKGQNPNATFGEVSKIVASMWDSLDEEQKQVYKRKTEAAKKEYLKALAAYR [G42D]	0.067 ± 0.085
QKPVSAYALFFRDTQAAIKGQNPNATFGEVSKIVASDWDSLGEEQKQVYKRKTEAAKKEYLKALAAYR [M37D]	-0.488 ± 0.16
QKPVSAYALFFRDTQAAIKGQNPNATFGEVSKIVASGWDSLGEEQKQVYKRKTEAAKKEYLKALAAYR [M37G]	-0.486 ± 0.067
QKPVSAYALFFRDTQAAIKGQNPNATFGEVSKIVASFWDSLGEEQKQVYKRKTEAAKKEYLKALAAYR [M37F]	-0.427 ± 0.13
QKPVSAYALFFRDTQAAIKGQNPNATFGEVSKIVASEWDSLGEEQKQVYKRKTEAAKKEYLKALAAYR [M37E]	-0.104 ± 0.065
QKPVSAYALFFRDTQAAIKGQNPNATFGEVSKIVASIWDSLGEEQKQVYKRKTEAAKKEYLKALAAYR [M37I]	-0.422 ± 0.13
QKPVSAYALFFRDTQAAIDGQNPNATFGEVSKIVASMWDSLGEEQKQVYKRKTEAAKKEYLKALAAYR [K19D]	-1.13 ± 0.33
QKPVSAYALFFRDTQAAIKGQNPNATFGEVSKIVGSMWDSLGEEQKQVYKRKTEAAKKEYLKALAAYR [A35G]	-0.122 ± 0.056
QKPVSAYALFFRDTQAAIKGQNPNATFGEVSKIVRSMWDSLGEEQKQVYKRKTEAAKKEYLKALAAYR [A35R]	0.12 ± 0.048
